We go through 20 molecules from patent US20150344570A1 (published 2015).

Sequences and labels used below:
B1: GpH7-A5/GpH7-B3 variant H268_20W/GpL16-k0 (antibody, human IgG1, kappa)
heavy 1: not shown
heavy 2: not shown
light: DIVMTQSPLSLPVTPGEPASISCQASESLVHSNRNTYLHWYLQKPGQSPQLLIYKVSNRFSGVPDRFSGSGSGTDFTLKISRVEAEDVGVYYCSQNTHVPPTFGQGTKVEIERTVAAPSVFIFPPSDEQLKSGTASVVCLLNNFYPREAKVQWKVDNALQSGNSQESVTEQDSKDSTYSLSSTLTLSKADYEKHKVYACEVTHQGLSSPVTKSFNRGEC
notes: IgG1, anti-glypican-3; also called He Ab
B2: GpH7-A5/GpH7-B3 variant H268_05P/GpL16-k0 (antibody, human IgG1, kappa)
heavy 1: not shown
heavy 2: not shown
light: B1 light
notes: as for B1
B3: GpH7-A5/GpH7-B3 variant H268_01G/GpL16-k0 (antibody, human IgG1, kappa)
heavy 1: not shown
heavy 2: not shown
light: B1 light
notes: as for B1
B4: GpH7-A5/GpH7-B3 variant H268_03V/GpL16-k0 (antibody, human IgG1, kappa)
heavy 1: not shown
heavy 2: not shown
light: B1 light
notes: as for B1
B5: GpH7-A5/GpH7-B3 variant A327_01G/GpL16-k0 (antibody, human IgG1, kappa)
heavy 1: not shown
heavy 2: not shown
light: B1 light
notes: as for B1
B6: GpH7-A5/GpH7-B3 variant H268_15Y/GpL16-k0 (antibody, human IgG1, kappa)
heavy 1: not shown
heavy 2: not shown
light: B1 light
notes: as for B1
B7: GpH7-A5/GpH7-B3 variant K326_16H/GpL16-k0 (antibody, human IgG1, kappa)
heavy 1: not shown
heavy 2: not shown
light: B1 light
notes: as for B1
B8: GpH7-A5/GpH7-B3 variant S298_20W/GpL16-k0 (antibody, human IgG1, kappa)
heavy 1: not shown
heavy 2: not shown
light: B1 light
notes: He Ab: mutation in one H chain only; also called He Ab
B9: GpH7-A5/GpH7-B3 variant Y300_16H/GpL16-k0 (antibody, human IgG1, kappa)
heavy 1: not shown
heavy 2: not shown
light: B1 light
notes: as for B8
B10: GpH7-A5/GpH7-B3 variant Y300_14T/GpL16-k0 (antibody, human IgG1, kappa)
heavy 1: not shown
heavy 2: not shown
light: B1 light
notes: as for B8
B11: GpH7-A5/GpH7-B3 variant Y300_09D/GpL16-k0 (antibody, human IgG1, kappa)
heavy 1: not shown
heavy 2: not shown
light: B1 light
notes: as for B8
B12: GpH7-A5/GpH7-B3 variant S337_06M/GpL16-k0 (antibody, human IgG1, kappa)
heavy 1: not shown
heavy 2: not shown
light: B1 light
notes: as for B8
B13: GpH7-A5/GpH7-B3 variant Y300_07I/GpL16-k0 (antibody, human IgG1, kappa)
heavy 1: not shown
heavy 2: not shown
light: B1 light
notes: as for B8
B14: GpH7-A5/GpH7-B3 variant S324_20W/GpL16-k0 (antibody, human IgG1, kappa)
heavy 1: not shown
heavy 2: not shown
light: B1 light
notes: as for B8
B15: GpH7-A5/GpH7-B3 variant Y300_03V/GpL16-k0 (antibody, human IgG1, kappa)
heavy 1: not shown
heavy 2: not shown
light: B1 light
notes: as for B8
B16: GpH7-A5/GpH7-B3 variant S324_18N/GpL16-k0 (antibody, human IgG1, kappa)
heavy 1: not shown
heavy 2: not shown
light: B1 light
notes: as for B8
B17: GpH7-A5/GpH7-B3 variant S324_19Q/GpL16-k0 (antibody, human IgG1, kappa)
heavy 1: not shown
heavy 2: not shown
light: B1 light
notes: as for B8
B18: GpH7-A5/GpH7-B3 variant S324_14T/GpL16-k0 (antibody, human IgG1, kappa)
heavy 1: not shown
heavy 2: not shown
light: B1 light
notes: as for B8
B19: GpH7-A5/GpH7-B3 variant S337_01G/GpL16-k0 (antibody, human IgG1, kappa)
heavy 1: not shown
heavy 2: not shown
light: B1 light
notes: as for B8
B20: GpH7-A5/GpH7-B3 variant Y300_11K/GpL16-k0 (antibody, human IgG1, kappa)
heavy 1: not shown
heavy 2: not shown
light: B1 light
notes: as for B8

T3 sequence (P12314 16-292): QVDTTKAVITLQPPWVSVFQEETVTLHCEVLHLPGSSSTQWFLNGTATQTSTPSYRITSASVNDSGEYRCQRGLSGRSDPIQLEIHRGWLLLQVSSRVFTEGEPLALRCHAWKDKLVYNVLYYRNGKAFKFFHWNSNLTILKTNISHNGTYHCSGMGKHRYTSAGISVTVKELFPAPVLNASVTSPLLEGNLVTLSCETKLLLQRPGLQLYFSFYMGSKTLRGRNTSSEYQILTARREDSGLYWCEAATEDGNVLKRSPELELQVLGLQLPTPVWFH
T1 sequence (P08637 17-208): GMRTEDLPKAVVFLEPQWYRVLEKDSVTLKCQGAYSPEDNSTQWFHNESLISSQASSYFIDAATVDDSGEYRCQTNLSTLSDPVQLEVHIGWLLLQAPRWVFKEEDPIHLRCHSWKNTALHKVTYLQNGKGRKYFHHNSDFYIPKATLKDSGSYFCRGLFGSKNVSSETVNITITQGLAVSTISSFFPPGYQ

One assay has as its target T1, FcγRIIIa extracellular domain with C-terminal His tag (human, UniProt P08637 17-208).
T1 construct: extracellular domain; also called 3a; FcgRIIIa; not shown: His tag at the C terminus
Kind of assay: SPR (Biacore), relative to GpH7-A5/GpH7-B3/GpL16-k0 = 100.
With B1, the He/Con_3a was 82.8 % (control = 100).
Same read-out and setting: to B2 belongs 76.4 % (control = 100); to B3, 96.7 % (control = 100).
Still for that read-out and setting: to B4 belongs 92.3 % (control = 100); to B5, 72.4 % (control = 100); to B6, 97.5 % (control = 100).
The same measure, in the same setting: next, B7: 96.1 % (control = 100).

Another assay concerns the target T2, FcγRIIb extracellular domain with C-terminal His tag (human, UniProt P31994 43-217).
T2 construct: extracellular domain; also called 2b; FcgRIIb; not shown: His tag at the C terminus
T2 sequence (looked up): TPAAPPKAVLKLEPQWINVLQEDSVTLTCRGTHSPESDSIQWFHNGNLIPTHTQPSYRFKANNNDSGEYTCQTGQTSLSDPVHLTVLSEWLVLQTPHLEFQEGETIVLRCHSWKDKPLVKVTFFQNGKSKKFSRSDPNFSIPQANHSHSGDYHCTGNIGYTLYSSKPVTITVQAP
Described as above.
In the case of B1, the He/Con_2b is 111 % (control = 100).
Regarding B2, the He/Con_2b is 116 % (control = 100).
As for B3, the He/Con_2b was 144 % (control = 100).
The same measure, in the same setting: next, B4: 114 % (control = 100).
On the same count and under the same terms, to B5 belongs 116 % (control = 100).
Turning to B6, the He/Con_2b is 106 % (control = 100).
Still for that read-out and setting: next, B7: 119 % (control = 100).

Another assay concerns the target T3, FcγRIa (human, UniProt P12314 16-292).
T3 construct: extracellular domain; Soluble extracellular domain with C-terminal His tag, used as analyte; also called FcgRI; CD64; not shown: His tag at the C terminus
In words: SPR (Biacore), captured antibody, FcγR as analyte, relative binding.
For B8, the He/Con_1a is 104 % of GpH7-A5/GpH7-B3/GpL16-k0.
On the same count and under the same terms, next, B9: 111 % of GpH7-A5/GpH7-B3/GpL16-k0.
On the same count and under the same terms, next, B10: 112 % of GpH7-A5/GpH7-B3/GpL16-k0; B11: 112 % of GpH7-A5/GpH7-B3/GpL16-k0; B12: 107 % of GpH7-A5/GpH7-B3/GpL16-k0.
The same measure, in the same setting: next, B13: 108 % of GpH7-A5/GpH7-B3/GpL16-k0; B14: 114 % of GpH7-A5/GpH7-B3/GpL16-k0; B15: 117 % of GpH7-A5/GpH7-B3/GpL16-k0.
For the molecule B16, the He/Con_1a was 116 % of GpH7-A5/GpH7-B3/GpL16-k0.
On to B17, for which the He/Con_1a was 112 % of GpH7-A5/GpH7-B3/GpL16-k0.
The same measure, in the same setting: to B18 belongs 121 % of GpH7-A5/GpH7-B3/GpL16-k0; to B19, 107 % of GpH7-A5/GpH7-B3/GpL16-k0; to B20, 107 % of GpH7-A5/GpH7-B3/GpL16-k0.

For a further assay, the target named is T4, FcγRIIb (human, UniProt P31994 43-217).
T4 construct: extracellular domain; Soluble extracellular domain with C-terminal His tag, used as analyte; also called FcgRIIb; CD32B; not shown: His tag at the C terminus
T4 sequence (looked up): T2 sequence (looked up)
The assay is described as above.
Turning to B8, the He/Con_2b is 41.1 % of GpH7-A5/GpH7-B3/GpL16-k0.
B9: the He/Con_2b was 87 % of GpH7-A5/GpH7-B3/GpL16-k0.
Still for that read-out and setting: next, B10: 55.6 % of GpH7-A5/GpH7-B3/GpL16-k0; B11: 93.2 % of GpH7-A5/GpH7-B3/GpL16-k0.
With B12, the He/Con_2b was 96.7 % of GpH7-A5/GpH7-B3/GpL16-k0.
Same read-out and setting: to B13 belongs 74.5 % of GpH7-A5/GpH7-B3/GpL16-k0; to B14, 87.5 % of GpH7-A5/GpH7-B3/GpL16-k0.
With B15, the He/Con_2b is 73.9 % of GpH7-A5/GpH7-B3/GpL16-k0.
On to B16, for which the He/Con_2b was 81.1 % of GpH7-A5/GpH7-B3/GpL16-k0.
Same read-out and setting: to B17 belongs 66.8 % of GpH7-A5/GpH7-B3/GpL16-k0; to B18, 88.4 % of GpH7-A5/GpH7-B3/GpL16-k0.
Same read-out and setting: next, B19: 92 % of GpH7-A5/GpH7-B3/GpL16-k0.
Still for that read-out and setting: next, B20: 51.6 % of GpH7-A5/GpH7-B3/GpL16-k0.
